Target: RPA1 (subunit of recombinant RPA and Alt-RPA) (human, UniProt P27694 1-616)
Assay: mass photometry

Sequence of RPA1 (subunit of recombinant RPA and Alt-RPA) (P27694 whole entry): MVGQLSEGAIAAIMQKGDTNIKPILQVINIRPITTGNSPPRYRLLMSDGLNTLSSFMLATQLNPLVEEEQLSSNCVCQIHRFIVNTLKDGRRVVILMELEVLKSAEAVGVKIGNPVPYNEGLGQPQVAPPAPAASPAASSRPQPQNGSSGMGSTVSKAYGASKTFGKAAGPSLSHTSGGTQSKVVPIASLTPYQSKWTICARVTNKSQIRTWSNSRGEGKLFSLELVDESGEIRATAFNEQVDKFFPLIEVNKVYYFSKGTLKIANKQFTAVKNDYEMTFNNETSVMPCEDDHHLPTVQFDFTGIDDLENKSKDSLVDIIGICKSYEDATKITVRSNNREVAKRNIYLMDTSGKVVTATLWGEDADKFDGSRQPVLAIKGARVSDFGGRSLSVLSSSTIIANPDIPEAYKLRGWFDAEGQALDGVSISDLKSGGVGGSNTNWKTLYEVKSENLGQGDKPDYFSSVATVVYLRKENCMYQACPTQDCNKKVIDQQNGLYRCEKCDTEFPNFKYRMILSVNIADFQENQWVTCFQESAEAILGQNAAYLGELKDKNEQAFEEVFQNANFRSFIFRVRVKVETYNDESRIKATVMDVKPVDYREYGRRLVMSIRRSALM

B1: RPA4 (subunit of recombinant Alt-RPA) (natural protein, human, UniProt Q13156 1-261, looked up)
chain: MSKSGFGSYGSISAADGASGGSDQLCERDATPAIKTQRPKVRIQDVVPCNVNQLLSSTVFDPVFKVRGIIVSQVSIVGVIRGAEKASNHICYKIDDMTAKPIEARQWFGREKVKQVTPLSVGVYVKVFGILKCPTGTKSLEVLKIHVLEDMNEFTVHILETVNAHMMLDKARRDTTVESVPVSPSEVNDAGDNDESHRNFIQDEVLRLIHECPHQEGKSIHELRAQLCDLSVKAIKEAIDYLTVEGHIYPTVDREHFKSAD
Q: Does B1 bind?
A: binds
